Experimental data as given in patent publication US20210032287A1.

Biological target: Syntaxin-1 (GST-tagged) (Homo sapiens (Human)) (UniProt Q16623)
Assay: ELISA-based competition assay; peptide (0.1, 0.5, 1 mM) preincubated with GST-Syntaxin-1 (10 or 5 nM), added to His-Munc18 (100 nM) on a nickel plate; anti-GST detection, A450

Chain of Syntaxin-1 (GST-tagged) (Homo sapiens (Human)) (Q16623 1-261 limits assumed): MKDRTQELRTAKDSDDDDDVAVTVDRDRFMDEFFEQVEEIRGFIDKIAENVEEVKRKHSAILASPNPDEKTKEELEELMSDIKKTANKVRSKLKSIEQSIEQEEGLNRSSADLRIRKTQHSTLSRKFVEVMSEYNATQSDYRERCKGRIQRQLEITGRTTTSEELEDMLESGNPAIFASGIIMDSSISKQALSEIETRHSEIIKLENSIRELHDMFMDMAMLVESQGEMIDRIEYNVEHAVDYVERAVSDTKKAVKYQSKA

| maximum inhibition of Munc18/Syntaxin-1 binding [%] | Substance |
| --- | --- |
| 37 | Ac-His-Ala-Leu-Arg-Phe-Trp-NH2 (peptide) |
| 67 | Ac-HILDMW-NH2 |
